Positions of bridges follow the written chain, without caps; N, C: chain ends.
What was measured:
[1] = target: T1, cJun (60 amino acid construct encompassing the entire bZIP domain) (UniProt P05412 252-315); assay: ITC; antagonist peptide at 25–200 μM injected into cJun at 2.5–20 μM in the cell, 25°C; 20 mM potassium phosphate, 150 mM potassium fluoride, 2 mM TCEP, pH 7.4; one-site binding model; two independent experiments; conditions: both partners purified
[2] = target: T1, cJun (60 amino acid construct …); assay: cell-based or functional assay
[3] = target: T1, cJun (60 amino acid construct …); assay: CD thermal denaturation; peptide (5 μM) with cJun (5 μM); ellipticity at 222 nm, 1°C to 90°C; 20 mM potassium phosphate, 150 mM potassium fluoride, 2 mM TCEP, pH 7.4; two-state fit gives the Tm of the peptide-cJun heterodimer; duplicate experiments; conditions: both partners purified

T1 sequence (P05412 252-315): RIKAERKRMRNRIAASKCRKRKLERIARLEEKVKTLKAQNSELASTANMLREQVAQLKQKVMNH

Binder	Kd [1] [µM]	dH [1] [kcal/mol]	stoichiometry N [1]	IC50 CD: peptide added to pre-incubated cJun (20 μM) and TRE DNA (5 μM); blocks cJun/TRE DNA binding [2] [µM]	Tm of the peptide-cJun heterodimer [3] [°C]
Ac-EAEELVVEEDVLEEEIEQLEERNYALRKEIEDLQKQ-NH2 (truncation NΔ20 CΔ7 of HW1; source: synthetic peptide (Fmoc SPPS, RP-HPLC purified)) [HW8]	1.1	-5.99	0.95	82.1	57.1
Ac-EAEELVVEEKVLEDEIEQLEERNYALRKEIEDLQKQ-NH2 (lactam 10-14; SMILES CC[C@H](C)[C@H](NC(=O)[C@H](CCC(=O)O)NC(=O)[C@H](CCCCN)NC(=O)[C@H](CCCNC(=N)N)NC(=O)[C@H](CC(C)C)NC(=O)[C@H](C)NC(=O)[C@H](Cc1ccc(O)cc1)NC(=O)[C@H](CC(N)=O)NC(=O)[C@H](CCCNC(=N)N)NC(=O)[C@H](CCC(=O)O)NC(=O)[C@H](CCC(=O)O)NC(=O)[C@H](CC(C)C)NC(=O)[C@H](CCC(N)=O)NC(=O)[C@H](CCC(=O)O)NC(=O)[C@@H](NC(=O)[C@H](CCC(=O)O)NC(=O)[C@@H]1CC(=O)NCCCC[C@H](NC(=O)[C@H](CCC(=O)O)NC(=O)[C@H](CCC(=O)O)NC(=O)[C@@H](NC(=O)[C@@H](NC(=O)[C@H](CC(C)C)NC(=O)[C@H](CCC(=O)O)NC(=O)[C@H](CCC(=O)O)NC(=O)[C@H](C)NC(=O)[C@H](CCC(=O)O)NC(C)=O)C(C)C)C(C)C)C(=O)N[C@@H](C(C)C)C(=O)N[C@@H](CC(C)C)C(=O)N[C@@H](CCC(=O)O)C(=O)N1)[C@@H](C)CC)C(=O)N[C@@H](CCC(=O)O)C(=O)N[C@@H](CC(=O)O)C(=O)N[C@@H](CC(C)C)C(=O)N[C@@H](CCC(N)=O)C(=O)N[C@@H](CCCCN)C(=O)N[C@@H](CCC(N)=O)C(N)=O, cyclized form of the pair HW22/HW23; NΔ20 CΔ7; source: synthetic peptide (Fmoc SPPS, on-resin lactamization, RP-HPLC purified)) [HW23]	0.0696	-14.1	1.2	74.9	64
Ac-EAEELVVEEKVLEDEIEQLEERNYALRKEIKDLQDQ-NH2 (lactam 10-14, 31-35; SMILES CC[C@H](C)[C@H](NC(=O)[C@H](CCC(=O)O)NC(=O)[C@H](CCCCN)NC(=O)[C@H](CCCNC(=N)N)NC(=O)[C@H](CC(C)C)NC(=O)[C@H](C)NC(=O)[C@H](Cc1ccc(O)cc1)NC(=O)[C@H](CC(N)=O)NC(=O)[C@H](CCCNC(=N)N)NC(=O)[C@H](CCC(=O)O)NC(=O)[C@H](CCC(=O)O)NC(=O)[C@H](CC(C)C)NC(=O)[C@H](CCC(N)=O)NC(=O)[C@H](CCC(=O)O)NC(=O)[C@@H](NC(=O)[C@H](CCC(=O)O)NC(=O)[C@@H]1CC(=O)NCCCC[C@H](NC(=O)[C@H](CCC(=O)O)NC(=O)[C@H](CCC(=O)O)NC(=O)[C@@H](NC(=O)[C@@H](NC(=O)[C@H](CC(C)C)NC(=O)[C@H](CCC(=O)O)NC(=O)[C@H](CCC(=O)O)NC(=O)[C@H](C)NC(=O)[C@H](CCC(=O)O)NC(C)=O)C(C)C)C(C)C)C(=O)N[C@@H](C(C)C)C(=O)N[C@@H](CC(C)C)C(=O)N[C@@H](CCC(=O)O)C(=O)N1)[C@@H](C)CC)C(=O)N[C@H]1CCCCNC(=O)C[C@@H](C(=O)N[C@@H](CCC(N)=O)C(N)=O)NC(=O)[C@H](CCC(N)=O)NC(=O)[C@H](CC(C)C)NC(=O)[C@H](CC(=O)O)NC1=O, double lactamized peptide; NΔ20 CΔ7; also called double lactam peptide HW30; source: synthetic peptide (Fmoc SPPS, on-resin lactamization, RP-HPLC purified)) [HW30]	0.00969	-30.5	1.05	44.9	63.2
Ac-EAEELVVEEDVLEEEIEQLEERNYALRKEIKDLQDQ-NH2 (lactam 31-35; SMILES CC[C@H](C)[C@H](NC(=O)[C@H](CCC(=O)O)NC(=O)[C@H](CCCCN)NC(=O)[C@H](CCCNC(=N)N)NC(=O)[C@H](CC(C)C)NC(=O)[C@H](C)NC(=O)[C@H](Cc1ccc(O)cc1)NC(=O)[C@H](CC(N)=O)NC(=O)[C@H](CCCNC(=N)N)NC(=O)[C@H](CCC(=O)O)NC(=O)[C@H](CCC(=O)O)NC(=O)[C@H](CC(C)C)NC(=O)[C@H](CCC(N)=O)NC(=O)[C@H](CCC(=O)O)NC(=O)[C@@H](NC(=O)[C@H](CCC(=O)O)NC(=O)[C@H](CCC(=O)O)NC(=O)[C@H](CCC(=O)O)NC(=O)[C@H](CC(C)C)NC(=O)[C@@H](NC(=O)[C@H](CC(=O)O)NC(=O)[C@H](CCC(=O)O)NC(=O)[C@H](CCC(=O)O)NC(=O)[C@@H](NC(=O)[C@@H](NC(=O)[C@H](CC(C)C)NC(=O)[C@H](CCC(=O)O)NC(=O)[C@H](CCC(=O)O)NC(=O)[C@H](C)NC(=O)[C@H](CCC(=O)O)NC(C)=O)C(C)C)C(C)C)C(C)C)[C@@H](C)CC)C(=O)N[C@H]1CCCCNC(=O)C[C@@H](C(=O)N[C@@H](CCC(N)=O)C(N)=O)NC(=O)[C@H](CCC(N)=O)NC(=O)[C@H](CC(C)C)NC(=O)[C@H](CC(=O)O)NC1=O, cyclized form of the pair HW28/HW29; NΔ20 CΔ7; source: synthetic peptide (Fmoc SPPS, on-resin lactamization, RP-HPLC purified)) [HW29]	0.0866	-23.6	0.97	52.7	65
HingeW (HW1) (TBS-selected 63-mer (acidic extension plus leucine zipper) with MAS N-cap and GAP C-cap; not shown: 6xHis, C-terminal, kept) peptide: MASLEQRAEELARENEELEKEAEELVVEEDVLEEEIEQLEERNYALRKEIEDLQKQLEKLGAP	0.00021	-31	0.93	13.4	71.2
Ac-EAEELVVEEDVLEEEIEQLEERNYALRKEIEDLQKQLEKL-NH2 (truncation NΔ20 CΔ3 of HW1; source: synthetic peptide (Fmoc SPPS, RP-HPLC purified)) [HW4]	0.0911	-45.4	0.91	45.4	64.1

— publication PMC9582194, “The effect of helix-inducing constraints and downsizing upon a transcription block survival-derived functional cJun antagonist” (Cell Reports. Physical Science, 2022)
